Reference: patent US20060110789A1, “Methods to mediate polyketide synthase module effectiveness” (priority 2002, published 2006)

Tests used:
[1] = biological target: (3)M5+TE (module 5 of DEBS with the N-terminal linker of module 3, fused to thioesterase) (UniProt Q03133); assay: cell-based or functional assay
[2] = biological target: (5)M2+TE (module 2 of DEBS with the N-terminal linker of module 5, fused to thioesterase) (UniProt Q03131); assay: cell-based or functional assay
[3] = biological target: (5)M5+TE (module 5 of DEBS with its own N-terminal linker, fused to thioesterase) (UniProt Q03133); assay: cell-based or functional assay
[4] = biological target: (5)M6+TE (module 6 of DEBS with the N-terminal linker of module 5, with thioesterase) (UniProt Q03133); assay: cell-based or functional assay
[5] = biological target: M3+TE (module 3 of DEBS with its own N-terminal linker, fused to thioesterase) (UniProt Q03132); assay: estimated from the saturation curve of the rate of tetraketide formation against M3+TE concentration at fixed M2 (kinetic, in solution)
[6] = biological target: (5)M3+TE (module 3 of DEBS with the N-terminal linker of module 5, fused to thioesterase) (UniProt Q03132); assay: estimated from the saturation curve of the rate of tetraketide formation against (5)M3+TE concentration at fixed 0.5 µM M2(4) (kinetic, in solution)

“diketide-ACP4(Ø) (DEBS ACP4 without linker, loaded with diketide) (from UniProt Q03132 3398-3488)” showed a k60 µM (FIG. 29 B) [1] of 0.27 min⁻¹, a k60 µM, fold decrease against diketide-ACP4(4) with the same module [2] of 10 fold and a k60 µM (FIG. 29 A) [3] of 0.49 min⁻¹. For the same substance, the k60 µM, fold decrease against diketide-ACP4(4) with the same module [4] was 10 fold.
For “M2 (module 2 of DEBS with its natural C-terminal linker) (from UniProt Q03131 1982-3404; Q03131 3408-3491) (enzyme)”, the Kd [5] was 1.1 µM.
“diketide-ACP2(4) (DEBS ACP2 with the C-terminal linker of module 4, loaded with diketide) (from UniProt Q03131 3320-3408; Q03132 3489-3567)” gave a k60 µM, fold decrease against the matched reaction (FIG. 28 C) [3] of 20 fold.
Work on “diketide-ACP4(4) (DEBS ACP4 with its natural C-terminal linker, loaded with diketide) (from UniProt Q03132 3398-3567)” yielded a k60 µM, fold decrease against the matched reaction (FIG. 28 B) [1] of 20 fold and a maximal rate of elongation of 4a, fold increase against the NAC thioester 2a [3] greater than 40 fold.
In the case of “M2(4) (module 2 of DEBS with the C-terminal linker of module 4) (from UniProt Q03131 1982-3404; Q03132 3489-3567) (enzyme)”, the Kd [6] is reported as 2.1 µM.
“diketide-NovH(4) (NovH fused to the C-terminal linker of DEBS module 4, loaded with diketide) (from UniProt Q03132 3489-3567)” was tested, and the k60 µM [4] was 0.53 min⁻¹.
